Laboratory results reported in article PMC13083859.

Biological target: human muscarinic M3 receptor with C-terminal mCitrine (M3-mCit), wild type (human) (UniProt P20309)
Test: FRET or BRET; single-cell FRET between receptor-mCitrine and mTurq-Gγ2 of the co-expressed heterotrimer (Gαo or Gαq, Gβ1, Gγ2) in HEK293T cells permeabilized with 0.05% saponin for 2 min (GTP depletion), PTX-A co-expressed; room temperature; internal buffer pH 7.35; complex induced by 10 µM acetylcholine, its stability after wash-out quantified as area under the curve (AUC); complete dissociation by 1 µM GTPγS

Sequence of UniProt P20309 (P20309 whole entry): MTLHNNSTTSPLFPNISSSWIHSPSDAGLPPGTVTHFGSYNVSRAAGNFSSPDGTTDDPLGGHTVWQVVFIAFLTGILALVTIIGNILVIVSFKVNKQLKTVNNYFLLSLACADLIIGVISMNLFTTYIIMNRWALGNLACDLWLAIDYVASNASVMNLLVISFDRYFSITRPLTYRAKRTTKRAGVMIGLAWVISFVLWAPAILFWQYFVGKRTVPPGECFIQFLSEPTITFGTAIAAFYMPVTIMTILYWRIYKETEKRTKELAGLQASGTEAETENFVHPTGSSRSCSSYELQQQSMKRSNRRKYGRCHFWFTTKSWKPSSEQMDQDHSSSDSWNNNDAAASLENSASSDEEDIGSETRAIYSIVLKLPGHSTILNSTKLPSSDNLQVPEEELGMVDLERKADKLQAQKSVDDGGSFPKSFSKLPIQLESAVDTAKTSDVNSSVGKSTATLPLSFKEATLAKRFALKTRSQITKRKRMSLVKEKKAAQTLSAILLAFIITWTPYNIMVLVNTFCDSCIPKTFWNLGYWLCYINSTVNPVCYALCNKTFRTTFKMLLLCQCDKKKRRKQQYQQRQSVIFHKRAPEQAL

| Substance | AUC (area under the FRET curve after agonist wash-out) [a.u.] |
| --- | --- |
| Go heterotrimer: PTX-insensitive Gαo, Gβ1-wt and mTurq-Gγ2 (from UniProt P09471 1-354; P62873 1-340; P59768 1-71) (complex) | 30 |
| Gq heterotrimer: Gαq, Gβ1-wt and mTurq-Gγ2 (from UniProt P50148 1-359; P62873 1-340; P59768 1-71) (complex; other documents disagree on this pair) | 106 |
